We go through two substances from US20060183161A1.

In the test the target is IL-1 receptors on fibroblasts (human) (UniProt P14778). Nature of the test: cell-based or functional assay.

Where only a bound is given, the exact number is not on record here.

Chain of UniProt P14778 (P14778 18-569): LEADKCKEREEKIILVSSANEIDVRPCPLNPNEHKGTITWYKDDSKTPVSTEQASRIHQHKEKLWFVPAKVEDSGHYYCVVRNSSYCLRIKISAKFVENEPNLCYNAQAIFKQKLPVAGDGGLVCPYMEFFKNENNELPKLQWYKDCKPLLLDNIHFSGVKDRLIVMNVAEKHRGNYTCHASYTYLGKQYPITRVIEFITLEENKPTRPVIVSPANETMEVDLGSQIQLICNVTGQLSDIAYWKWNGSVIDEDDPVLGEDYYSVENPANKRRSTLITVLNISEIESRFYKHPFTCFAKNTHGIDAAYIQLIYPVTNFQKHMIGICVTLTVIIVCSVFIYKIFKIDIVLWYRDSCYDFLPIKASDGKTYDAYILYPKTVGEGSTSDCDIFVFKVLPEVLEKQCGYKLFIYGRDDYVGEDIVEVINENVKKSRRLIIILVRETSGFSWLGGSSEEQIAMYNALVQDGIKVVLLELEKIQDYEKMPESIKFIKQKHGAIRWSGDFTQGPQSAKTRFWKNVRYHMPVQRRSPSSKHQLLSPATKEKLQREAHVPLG

The substance “recombinant human IL-1 receptor antagonist (rhIL-1ra) (from UniProt P18510 28-177) (ligand)” gave an IL-6 production from fibroblasts in response to 0.1 nM IL-1b (ELISA) of 95 % reduction. Substance “rhIL-1L1 Form B (from UniProt Q9UBH0 1-155) (ligand)” returned an IL-1-like activity: IL-6 secretion by fibroblasts and endothelial cells (ELISA) (% of the activity of 0.1 nM IL-1b) of under 1.
